Data published in patent US20260008822A1 (RECOURSE BIOLOGICS, published 2026).

Molecular target: T1, E0 (EGFR-OMCP bispecific fusion protein: cetuximab scFv - (GGGGS)3 linker - OMCP - His8 tag)
T1 construct: also called OMCP-EGFR; OMCP-EGFR scFv
Assay: SPR (ProteOn XPR36), human NKG2D amine-coupled to the chip, bispecific as analyte, 1:1 Langmuir fit

B1: human NKG2D (receptor, UniProt P26718 78-216, looked up)
chain: FLNSLFNQEVQIPLTESYCGPCPKNWICYKNNCYQFFDESKNWYESQASCMSQNASLLKVYSKEDQDLLKLVKSYHWMGLVHIPTNGSWQWEDGSILSPNLLTIIEMQKGDCALYASSFKGYIENCSTPNTYICMQRTV
For B1, which Kd is on record?
The Kd was 0.17 nM.
